These results are taken from the Human Domainome abundance scans (Beltran et al. 2025).

± gives the uncertainty stated by the source.

First the molecules themselves.
B1: Transitional endoplasmic reticulum ATPase, residues 26 to 106; numbered along this chain, P55072 (parent)
chain: LIVDEAINEDNSVVSLSQPKMDELQLFRGDTVLLKGKKRREAVCIVLSDDTCSDEKIRMNRVVRNNLRVRLGDVISIQPCP

In the data set the parent is B1. In words: abundance fitness (aPCA) (normalised: wild type 0, dead -1); higher = more abundant; growth selection in yeast, the domain comes from the species named. Particulars: Homo sapiens.
As to D10N, the abundance fitness was -0.228 ± 0.13.
In the case of E5F it was 0.016 ± 0.084; in that of E5N, -0.018 ± 0.12.
Turning to E5W, the abundance fitness is -0.051 ± 0.044.
Under L24Q stands -0.516 ± 0.14; under L24W, -0.265 ± 0.075; under L24Y, -0.224 ± 0.093.
Under L24P stands -0.551 ± 0.099.
In the case of A6Q it was 0.007 ± 0.073; in that of A6R, -0.084 ± 0.053.
Consider A6K, for which the abundance fitness was -0.154 ± 0.079.
Turning to A6C, the abundance fitness was -0.048 ± 0.077.
Turning to A6G, the abundance fitness worked out at 0.024 ± 0.044.
In the case of A6E, the abundance fitness is -0.107 ± 0.059.
On to A6H, for which the abundance fitness came out at 0.001 ± 0.084.
C44I: the abundance fitness is -0.189 ± 0.099.
Under C44M stands 0.085 ± 0.077; under C44P, -0.969 ± 0.14.
R28K: the abundance fitness stood at 0.064 ± 0.069.
Under R28S stands -0.009 ± 0.055.
In the case of R28Q it was -0.008 ± 0.066; in that of R28V, 0.021 ± 0.067.
Under D4I stands 0.052 ± 0.12.
For the variant D4F, the abundance fitness is -0.345 ± 0.11.
Under D4S stands -0.018 ± 0.05; under D4K, -0.271 ± 0.13.
Under V43M stands 0.098 ± 0.14; under V43Q, 0.147 ± 0.12; under V43G, -0.289 ± 0.06.
Under V43L stands -0.099 ± 0.066; under G36T, -0.042 ± 0.096.
As to G36E, the abundance fitness was -0.191 ± 0.15.
Under N11C stands -0.091 ± 0.059; under N11T, -0.028 ± 0.066.
Consider N11I, for which the abundance fitness was -0.024 ± 0.038.
In the case of N11G it was -0.067 ± 0.04.
For the variant I57Q, the abundance fitness is -0.816 ± 0.18.
In the case of I57P it was -0.933 ± 0.17.
Regarding I57E, the abundance fitness is -0.804 ± 0.15.
In the case of I57S it was -0.861 ± 0.15; in that of Q25Y, -0.485 ± 0.14; in that of Q25W, -0.256 ± 0.11.
Take Q25S: the abundance fitness came to 0.027 ± 0.056.
Under Q25H stands -0.168 ± 0.15; under L71K, -0.026 ± 0.091.
Under L71Q stands -0.028 ± 0.076.
Turning to L71S, the abundance fitness was -0.004 ± 0.073.
L71A: the abundance fitness was 0.114 ± 0.066.
In the case of L71I it was 0.045 ± 0.13.
Under L71M stands -0.002 ± 0.12; under S17I, -0.79 ± 0.17.
Under S17V stands -1.03 ± 0.26.
For the variant S17Q, the abundance fitness was -0.671 ± 0.1.
Under S17A stands -0.174 ± 0.052; under S17R, -0.431 ± 0.043; under V32A, -0.18 ± 0.057.
Under V32C stands 0.007 ± 0.094.
Under V32W stands -0.988 ± 0.22; under C52E, -0.416 ± 0.085; under C52F, -0.495 ± 0.27.
As for C52T, the abundance fitness is -0.027 ± 0.071.
Under C52H stands -0.452 ± 0.26.
In the case of C52M it was -0.016 ± 0.092.
Turning to T51N, the abundance fitness came out at 0.126 ± 0.14.
In the case of T51W it was -0.275 ± 0.068; in that of T51K, -0.065 ± 0.088.
Under T51H stands -0.515 ± 0.41; under T51M, -0.131 ± 0.076.
Under M59C stands -0.066 ± 0.088.
With M59W, the abundance fitness was -0.99 ± 0.14.
As for M59G, the abundance fitness is -1.01 ± 0.18.
In the case of M59V it was -0.166 ± 0.11; in that of D54F, -0.112 ± 0.099.
As for D54Q, the abundance fitness is -0.279 ± 0.1.
In the case of D54G it was -0.075 ± 0.044; in that of D54V, -0.016 ± 0.049; in that of D54M, 0.006 ± 0.12.
On to M21Y, for which the abundance fitness is -0.516 ± 0.16.
On to M21T, for which the abundance fitness is -0.825 ± 0.18.
In the case of M21R it was -0.888 ± 0.055; in that of K35Y, -0.229 ± 0.21; in that of K35F, -0.247 ± 0.2.
In the case of K35G it was -0.088 ± 0.071; in that of K35Q, 0.078 ± 0.088.
Take K35C: the abundance fitness turned out to be 0.04 ± 0.18.
Under S76Q stands 0.057 ± 0.11; under S76M, -0.012 ± 0.087; under S76V, 0.023 ± 0.064.
Consider S76T, for which the abundance fitness is -0.146 ± 0.091.
In the case of S76C it was -0.015 ± 0.096.
In the case of S76H it was 0 ± 0.17.
Turning to E23D, the abundance fitness is -0.23 ± 0.12.
Take E23S: the abundance fitness was -0.062 ± 0.059.
As for E23C, the abundance fitness was -0.496 ± 0.26.
Under E23N stands -0.112 ± 0.31.
In the case of E23G it was -0.079 ± 0.061.
In the case of E23Y, the abundance fitness is -0.164 ± 0.27.
In the case of K56P it was -0.971 ± 0.2; in that of K56T, 0.091 ± 0.085; in that of K56E, -0.088 ± 0.073.
In the case of P79K it was 0.113 ± 0.12.
Take P79A: the abundance fitness turned out to be 0.015 ± 0.063.
As for P79D, the abundance fitness was -0.383 ± 0.15.
L33H: the abundance fitness was -0.031 ± 0.11.
Consider L33Y, for which the abundance fitness stood at 0.086 ± 0.12.
Consider L33R, for which the abundance fitness is -0.068 ± 0.046.
In the case of N65M it was -0.054 ± 0.1.
Take N65L: the abundance fitness was -0.074 ± 0.051.
In the case of N65C it was -0.106 ± 0.095; in that of N65G, -0.066 ± 0.056.
For N65H, the abundance fitness was -0.038 ± 0.11.
As to D30E, the abundance fitness came out at 0.108 ± 0.087.
Turning to D30G, the abundance fitness was -0.107 ± 0.041.
In the case of D30F it was -0.638 ± 0.32; in that of D30Y, -0.732 ± 0.2; in that of D30Q, 0.103 ± 0.1.
Consider K38A, for which the abundance fitness was found to be 0.02 ± 0.076.
With K38S, the abundance fitness was -0.097 ± 0.092.
In the case of K38Q it was -0.051 ± 0.16; in that of K38V, -0.153 ± 0.067.
With K38D, the abundance fitness is -0.11 ± 0.15.
Regarding K38H, the abundance fitness was -0.05 ± 0.18.
Under K38R stands -0.024 ± 0.077; under K38I, -0.282 ± 0.15.
Turning to P19E, the abundance fitness stood at 0.087 ± 0.088.
For P19D, the abundance fitness was -0.101 ± 0.16.
For the variant P19N, the abundance fitness is -0.251 ± 0.26.
On to P19C, for which the abundance fitness is -0.179 ± 0.11.
In the case of I77K it was -1.01 ± 0.38; in that of I77G, -0.817 ± 0.093; in that of I77T, -0.672 ± 0.17.
Take K20P: the abundance fitness was -1.19 ± 0.36.
Under K20M stands 0.04 ± 0.074; under K20Q, -0.014 ± 0.11; under K20D, -0.39 ± 0.22.
For the variant K20R, the abundance fitness is -0.019 ± 0.073.
For the variant L34V, the abundance fitness was -0.047 ± 0.07.
Under L34R stands -0.963 ± 0.17; under L34P, -1.04 ± 0.43; under L34C, 0.26 ± 0.41.
Under L34K stands -0.806 ± 0.2; under R58Q, -0.185 ± 0.14; under R58H, -0.246 ± 0.25.
In the case of R58Y it was -0.093 ± 0.4; in that of R58V, -0.521 ± 0.1; in that of Q18D, -0.264 ± 0.089.
In the case of Q18G, the abundance fitness was -0.034 ± 0.043.
As to Q18W, the abundance fitness is -0.206 ± 0.1.
Turning to Q18P, the abundance fitness was -0.078 ± 0.092.
In the case of V63K, the abundance fitness was -0.433 ± 0.11.
Under V63T stands 0.072 ± 0.12; under V63R, -0.445 ± 0.066.
Under V63L stands 0 ± 0.061.
Turning to V63W, the abundance fitness was -0.342 ± 0.1.
Under V63A stands 0.054 ± 0.073; under R61Q, -0.036 ± 0.18.
For the variant R61M, the abundance fitness is -0.178 ± 0.19.
In the case of R61Y it was -0.059 ± 0.21.
Under R61S stands -0.024 ± 0.092.
In the case of R61H it was -0.157 ± 0.18.
Turning to N8S, the abundance fitness was -0.036 ± 0.053.
In the case of N8V it was -0.096 ± 0.062.
In the case of N8D it was 0.075 ± 0.09; in that of N8M, -0.099 ± 0.068.
On to N8P, for which the abundance fitness is -0.096 ± 0.061.
For the variant V69Y, the abundance fitness is -0.781 ± 0.35.
Take V69H: the abundance fitness was -1 ± 0.43.
